Measurements published in patent US20230129258A1 (Bicycle, published 2023).
Starred links: 1 amine or outer side, 2 acyl side, 3 side chain; linkers in the order of their positions; H or OH if unused. Positions of bridges follow the written chain, without caps; N, C: chain ends. Non-standard residues stand in square brackets, D forms with d. Chains are numbered I, II in the order given. No end group written: not given here. *: point of attachment. TATA = O=C(CC[*:1])N1CN(C(=O)CC[*:2])CN(C(=O)CC[*:3])C1; Dip = N[C@H](C(=O)O)C(c1ccccc1)c1ccccc1; 1Nal = N[C@@H](Cc1cccc2ccccc12)C(=O)O; Hyp = O=C(O)[C@@H]1C[C@@H](O)CN1; hArg = N=C(N)NCCCC[C@H](N)C(=O)O; tBuAla = CC(C)(C)C[C@H](N)C(=O)O; Cysteamide = C(CS[*:3])N[*:1]; Cba = N[C@@H](CC1CCC1)C(=O)O; dK(PYA) = not defined here; Nle = CCCC[C@H](N)C(=O)O; Pent4ynoyl = C#CCCC(=O)*; Mpa = O=C(O)CCS

B1: BCY13274 (peptide)
peptide 1: Ac-C[Hyp]LVNPLCL[Dip]P[dD]WTC[dK]
peptide 2: Ac-C[tBuAla]PE[dK](Pent4ynoyl)PYCFADPY[Nle]CA
modifications: linker I:1-I:8-I:15 via TATA; linker II:1-II:8-II:15 via TATA (inferred); not fully specified (bridges); also: linker N-(acid-PEG3)-N-bis(PEG3-azide) on C-terminal dK of chain 1, joins two chain 2 copies via PYA triazoles
B2: BCY13282 (peptide)
peptide 1: ADC[Hyp]LVNPLCLEP[dD]WTC
peptide 2: Ac-C[tBuAla]PE[dK](Pent4ynoyl)PYCFADPY[Nle]CA
modifications: linker I:3-I:10-I:17, II:1-II:8-II:15 via TATA (inferred); not fully specified (N-terminus, bridges); also: 1:2 complex: two BCY8928 chains on the linker
B3: BCY13280 (peptide)
peptide 1: [dA]EDC[Hyp]LVNPLCLEP[dD]WTC
peptide 2: Ac-C[tBuAla]PE[dK](Pent4ynoyl)PYCFADPY[Nle]CA
modifications: linker I:4-I:11-I:18, II:1-II:8-II:15 via TATA (inferred); not fully specified (N-terminus, bridges); also: 1:2 complex: two copies of chain 2 (BCY8928) on the branched linker
B4: BCY13343 (peptide)
peptide 1: C[Hyp]LVNPLCL[Dip]PDWTC
peptide 2: [Mpa][tBuAla]PE[dK(PYA)]PYCFADPY[Nle]C
modifications: linker I:1-I:8-I:15, II:1-II:8-II:15 via TATA; not fully specified (some residues); reading uncertain; also: 1:2 complex: two copies of chain 2 (BCY12353) on the branched linker, linker at chain B 5 to a chain's N-terminus via N-(acid-PEG3)-N-bis(PEG3-azide)
B5: BCY12978 (peptide)
peptide 1: A[hArg]EC[Hyp]LVNPLCLHP[dE]W[hArg]C
peptide 2: Ac-C[tBuAla]PE[dK](Pent4ynoyl)PYCFADPY[Nle]CA
modifications: linker I:4-I:11-I:18, II:1-II:8-II:15 via TATA (inferred); not fully specified (bridges); also: chain 1 N-terminus and chain 2 dLys(PYA) joined through N-(acid-PEG3)-N-bis(PEG3-azide) linker
B6: BCY13048 (peptide)
peptide 1: C[Hyp]LVNPLCL[Dip]P[dD]WTC
peptide 2: Ac-C[tBuAla]PE[dK](Pent4ynoyl)PYCFADPY[Nle]CA
modifications: linker I:1-I:8-I:15 via TATA; linker II:1-II:8-II:15 via TATA (inferred); not fully specified (N-terminus, bridges); also: 1:2 complex: two copies of chain 2 (BCY8928) on the branched linker
B7: BCY13273 (peptide)
peptide 1: C[Hyp]LVNPLCL[1Nal]PDWTC
peptide 2: Ac-C[tBuAla]PE[dK](Pent4ynoyl)PYCFADPY[Nle]CA
modifications: linker I:1-I:8-I:15 via TATA; linker II:1-II:8-II:15 via TATA (inferred); not fully specified (some residues, N-terminus); also: linker joins chain 1 to two chain 2 copies via PYA triazoles
B8: BCY13341 (peptide)
peptide 1: C[Hyp][Cba]VNPLCL[Dip]P[dD]WTC[dA]
peptide 2: [Mpa][tBuAla]PE[dK(PYA)]PYCFADPY[Nle]C
modifications: linker I:1-I:8-I:15, II:1-II:8-II:15 via TATA; reading uncertain; also: linker at chain B 5 to a chain's N-terminus via N-(acid-PEG3)-N-bis(PEG3-azide)
B9: BCY13053 (peptide)
peptide 1: C[Hyp][Cba]VNPLCL[Dip]P[dD]WTC[dA]
peptide 2: Ac-C[tBuAla]PE[dK](Pent4ynoyl)PYCFADPY[Nle]CA
modifications: linker I:1-I:8-I:15 via TATA; linker II:1-II:8-II:15 via TATA (inferred); not fully specified (N-terminus, bridges); also: 1:2 complex: two copies of chain 2 (BCY8928) on the branched linker
B10: BCY13281 (peptide)
peptide 1: AADCXLVNPLCLEPDWTC
peptide 2: CXPEXPYCFADPYXCA
modifications: not fully specified; BCY8928: Ac-(SEQ ID NO: 11)-A; TATA; linker at dLys(PYA)4; BCY13127: [dA]-[dA]-D-(SEQ ID NO: 35); TATA; linker at N-terminus
B11: BCY13049 (peptide)
peptide 1: C[Hyp]LVNPLCLEP[dD]WTC[dA]
peptide 2: Ac-C[tBuAla]PE[dK](Pent4ynoyl)PYCFADPY[Nle]CA
modifications: linker I:1-I:8-I:15, II:1-II:8-II:15 via TATA (inferred); not fully specified (N-terminus); also: linker joins chain 1 to two chain 2 copies via PYA triazoles
B12: BCY11385 (peptide)
peptide 1: CPXDCMXDWSTPXWC
peptide 2: CXPEAPYCFADPYXCX
modifications: not fully specified; BCY11014: Ac-(SEQ ID NO: 6)-Dap(PYA); TATA; linker at C-term Dap(PYA); BCY8116: SEQ ID NO: 1; TATA; linker at N-terminus
B13: BCY12587 (peptide)
peptide 1: CP[1Nal]DCM[hArg]DWSTP[Hyp]WC
peptide 2: [Mpa][tBuAla]PE[dK](Pent4ynoyl)PYCFADPY[Nle]C
modifications: linker I:1-I:5-I:15, II:1-II:8-II:15 via TATA; not fully specified (some residues); also: chain 2 present twice on linker, Nectin-4:CD137 1:2, linker at chain B 5 to a chain's N-terminus via N-(acid-PEG3)-N-bis(PEG3-azide)
B14: BCY12590 (peptide)
peptide 1: CP[1Nal]ECM[hArg]EWSTP[Hyp]WC
peptide 2: Ac-C[tBuAla]PE[dK](Pent4ynoyl)PYCFADPY[Nle]CA
modifications: linker I:1-I:5-I:15, II:1-II:8-II:15 via TATA; not fully specified (some residues, bridges); also: chains joined via N-(acid-PEG3)-N-bis(PEG3-azide) linker, triazole at dLys(PYA)
B15: BCY12485 (peptide)
peptide 1: CPXDCMXDWSTPXWC
peptide 2: CXPEXPYCFADPYXC
modifications: not fully specified; BCY12149: Ac-(SEQ ID NO: 63); TATA; linker at dLys(PYA)4; BCY8116: SEQ ID NO: 1; TATA; linker at N-terminus
B16: BCY12588 (peptide)
peptide 1: CP[1Nal]DCM[hArg]DWSTP[Hyp]WC
peptide 2: [Mpa][tBuAla]PE[dK](Pent4ynoyl)PYCFADPY[Nle][Cysteamide]
modifications: linker I:1-I:5-I:15, II:1-II:8-II:15 via TATA; not fully specified (some residues); also: chain 2 present twice on linker, Nectin-4:CD137 1:2, linker at chain B 5 to a chain's N-terminus via N-(acid-PEG3)-N-bis(PEG3-azide)
B17: BCY12486 (peptide)
peptide 1: CPXDCMXDWSTPXWC
peptide 2: CXPEXPYCFANPYXC
modifications: not fully specified; BCY12147: Ac-(SEQ ID NO: 65); TATA; linker at dLys(PYA)4; BCY8116: SEQ ID NO: 1; TATA; linker at N-terminus
B18: BCY11021 (peptide)
peptide 1: CPXDCMXDWSTPXWC
peptide 2: ACIEEXQYCFADPYXCA
modifications: not fully specified; BCY7744: Ac-A-(SEQ ID NO: 12)-A; TATA; linker at dLys(PYA)4; BCY11016: [PYA]-[B-Ala]-(SEQ ID NO: 1); TATA; linker at N-term PYA
B19: BCY12484 (peptide)
peptide 1: CPXDCMXDWSTPXWC
peptide 2: CXEEXPYCFADPYXC
modifications: not fully specified; BCY12143: Ac-(SEQ ID NO: 64); TATA; linker at dLys(PYA)4; BCY8116: SEQ ID NO: 1; TATA; linker at N-terminus
B20: BCY12586 (peptide)
peptide 1: CPXDCMXDWSTPXWC
peptide 2: CXPEXPYCFADPYXX
modifications: not fully specified; BCY12352: Ac-(SEQ ID NO: 69), [Cysam] third reactive group; TATA; linker at dLys(PYA)4; BCY8116: SEQ ID NO: 1; TATA; linker at N-terminus
B21: BCY10918 (peptide)
peptide 1: CPXDCMXDWSTPXWC
peptide 2: CXPEXPYCFADPYXCA
modifications: not fully specified; BCY8928: Ac-(SEQ ID NO: 11)-A; TATA; linker at dLys(PYA)4; BCY11015: [PYA]-(SEQ ID NO: 1); TATA; linker at N-term PYA
B22: BCY10919 (peptide)
peptide 1: CPXDCMXDWSTPXWC
peptide 2: CXPEAPYCFADPYXCX
modifications: not fully specified; BCY11014: Ac-(SEQ ID NO: 6)-Dap(PYA); TATA; linker at C-term Dap(PYA); BCY11015: [PYA]-(SEQ ID NO: 1); TATA; linker at N-term PYA

What follows are binders tested against T1, CD137 on Jurkat reporter cells (Promega kit CS196005) (UniProt Q07011 24-255, limits assumed) (assay: cell-based or functional assay).
T1 sequence (Q07011 24-255 limits assumed): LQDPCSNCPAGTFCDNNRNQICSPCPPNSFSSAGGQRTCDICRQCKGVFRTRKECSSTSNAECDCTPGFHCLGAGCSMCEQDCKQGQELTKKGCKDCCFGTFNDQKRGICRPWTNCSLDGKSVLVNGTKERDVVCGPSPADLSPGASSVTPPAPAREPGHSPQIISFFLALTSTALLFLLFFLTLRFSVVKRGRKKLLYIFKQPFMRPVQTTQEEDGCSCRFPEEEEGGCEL

| Binder | EC50 (nM), PC3 co-culture | Emax (fold induction over background), PC3 |
| --- | --- | --- |
| B1 | 0.19 nM | 47.4 fold over background |
| B2 | 0.22 nM | 40 fold over background |
| B3 | 0.19 nM | 38.1 fold over background |
| B4 | 0.11 nM | 44 fold over background |
| B5 | 0.05 nM | 78.1 fold over background |
| B6 | 0.09 nM | 48.4 fold over background |
| B7 | 0.13 nM | 51.3 fold over background |
| B8 | 0.19 nM | 49.1 fold over background |
| B9 | 0.1 nM | 40.3 fold over background |
| B10 | 0.17 nM | 35.6 fold over background |
| B11 | 0.3 nM | 46 fold over background |

Target: T1, CD137 on Jurkat reporter cells (Promega …)
Assay: cell-based or functional assay
Remark: another data set of the same source

| Binder | Fold improvement in EC50 over BCY10000 on same plate, NCI-H292 | Fold improvement in Emax over BCY10000 on same plate, NCI-H292 |
| --- | --- | --- |
| B12 | 9.35 fold | 1.28 fold |
| B13 | 4.2 fold | 2.9 fold |
| B14 | 5.5 fold | 2.73 fold |
| B15 | 3.82 fold | 2.18 fold |
| B16 | 0.72 fold | 3.2 fold |
| B17 | 0.25 fold | 1.73 fold |
| B18 | 9.63 fold | 4.42 fold |
| B19 | 5.46 fold | 1.86 fold |
| B20 | 1.9 fold | 3.79 fold |

Target: T1, CD137 on Jurkat reporter cells (Promega …)
Assay: cell-based or functional assay
Remark: another data set of the same source

| Binder | EC50 (nM), HT1376 co-culture | Emax (fold induction over background), HT1376 |
| --- | --- | --- |
| B21 | 0.16 nM |  |
| B22 | 0.19 nM | 62 fold over background |
